According to patent US20200392228A1 (PANDION OPERATIONS, published 2020):

How the values were obtained:
[1] = biological target: T1, human MAdCAM expressed on cells (human, UniProt Q13477 19-382); assay: cell binding
T1 construct: whole, on cells; also called MADCAM1
T1 sequence (looked up): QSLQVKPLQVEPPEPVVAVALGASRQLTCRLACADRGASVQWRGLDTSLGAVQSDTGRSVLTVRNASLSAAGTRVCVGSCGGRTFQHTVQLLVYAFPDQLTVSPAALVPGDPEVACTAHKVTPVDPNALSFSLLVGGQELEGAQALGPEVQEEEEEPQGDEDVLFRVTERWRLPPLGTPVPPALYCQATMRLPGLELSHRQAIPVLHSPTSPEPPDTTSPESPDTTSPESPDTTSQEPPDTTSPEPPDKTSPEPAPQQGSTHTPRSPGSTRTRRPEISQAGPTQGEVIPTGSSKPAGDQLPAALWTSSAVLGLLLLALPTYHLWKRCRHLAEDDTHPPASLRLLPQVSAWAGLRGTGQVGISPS

[2] = biological target: T2, mouse MAdCAM expressed on cells (mouse, UniProt Q61826 22-405); assay: cell binding
T2 construct: whole, on cells
T2 sequence (looked up): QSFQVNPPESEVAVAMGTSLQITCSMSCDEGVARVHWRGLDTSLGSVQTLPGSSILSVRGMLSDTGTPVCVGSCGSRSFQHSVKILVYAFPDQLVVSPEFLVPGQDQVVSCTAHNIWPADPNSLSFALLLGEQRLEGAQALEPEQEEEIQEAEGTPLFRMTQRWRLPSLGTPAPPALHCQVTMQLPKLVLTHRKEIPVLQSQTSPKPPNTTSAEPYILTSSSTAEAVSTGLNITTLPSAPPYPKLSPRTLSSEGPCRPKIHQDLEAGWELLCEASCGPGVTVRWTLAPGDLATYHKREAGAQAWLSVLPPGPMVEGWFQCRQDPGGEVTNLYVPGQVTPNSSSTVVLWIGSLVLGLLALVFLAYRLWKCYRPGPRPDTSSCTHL

Binder	binding result [1]	binding result [2]
MAdCAM antibody Clone ID 54 of Table 6 (scFv) (scFv) scFv: EVQLLESGGGLVQPGGSLRLSCAASGFTFGDYAMSWVRQAPGKGLEWVAVVSYDGTNKYYADSVKGRFTISRDNSKNTLYLQMNSLRAEDTAVYYCAKDICSSTSCYFDLWGRGTLVTVSSGGGGSGGGGSGGGGSGGGGSDIQMTQSPSSLSASVGDRVTITCRASQNINNYVNWYQQKPGKAPKLLIYDASNLETGVPSRFSGSGSGTDFTLTISSLQPEDFATYYCQQANSFPPTFGQGTRLEIK	binds	no binding
MAdCAM antibody Clone ID 55 of Table 6 (scFv) (scFv) scFv: QVQLVQSGAEVKKPGASVKVSCKASGYTFTSYYMHWVRQAPGQGLEWMGIIDPSGGSTSYAQKFQGRVTMTRDTSTSTVYMELSSLRSEDTAVYYCAREEWSSGGVGYFDYWGQGTLVTVSSGGGGSGGGGSGGGGSGGGGSDIQMTQSPSSLSASVGDRVTITCRASQGISSYLAWYQQKPGKAPKLLIYATSSLQTGVPSRFSGSGSGTDFTLTISSLQPEDFATYYCQQTYSIPITFGQGTRLEIK	binds	no binding
MAdCAM antibody Clone ID 57 of Table 6 (scFv) (scFv) scFv: QVQLVQSGAEVKKPGASVKVSCKASGYTFTSYYMHWVRQAPGQGLEWMGIINPSGGSTSYAQKFQGRVTMTRDTSTSTVYMELSSLRSEDTAVYYCARDSVAGTGGRYYGMDVWGQGTLVTVSSGGGGSGGGGSGGGGSGGGGSDIQMTQSPSSLSASVGDRVTITCRASQGISNYFAWYQQKPGKAPKLLIYAASSLQGGVPSRFSGSGSGTDFTLTISSLQPEDFATYYCQQSYSLPYTFGQGTKLEIK	binds	no binding
MAdCAM antibody Clone ID 58 of Table 6 (scFv) (scFv) scFv: QVQLVQSGAEVKKPGASVKVSCKASGYTFTGYYMHWVRQAPGQGLEWMGIINPSGGNTKYAQKFQGRVTMTRDTSTSTVYMELSSLRSEDTAVYYCTTADYYYYMDVWGKGTTVTVSSGGGGSGGGGSGGGGSGGGGSDIQMTQSPSSLSASVGDRVTITCRASQGISNYLAWYQQKPGKAPKLLIYAASSLQSGVPSRFSGSGSGTDFTLTISSLQPEDFATYYCQQYYSNADFGQGTKVEIK	binds	no binding
MAdCAM antibody Clone ID 8 of Table 6 (scFv) (scFv) scFv: EVQLLESGGGLVQPGGSLRLSCAASGFMFGDYAMHWVRQAPGKGLEWVSAISGSGGSTYYADSVKGRFTISRDNSKNTLYLQMNSLRAEDTAVYYCAKDLVVAGIWYFDLWGRGTLVTVSSGGGGSGGGGSGGGGSGGGGSDIQMTQSPSSLSASVGDRVTITCRASQGISNNLNWYQQKPGKAPKLLIYDASSLESGVPSRFSGSGSGTDFTLTISSLQPEDFATYYCQQTHSFPSTFGQGTKLEIK	binds	no binding
MAdCAM antibody Clone ID 10 of Table 6 (scFv) (scFv) scFv: QVQLVQSGAEVKKPGASVKVSCKASGYTLTTWYMYWVRQAPGQGLEWMGWINPNRGATNYAQKFQGRVTMTRDTSTSTVYMELSSLRSEDTAVYYCAKGDLWGAMDVWGQGTLVTVSSGGGGSGGGGSGGGGSGGGGSDIQMTQSPSSLSASVGDRVTITCRASDNIGSWLAWYQQKPGKAPKLLIYAASSLQSGVPSRFSGSGSGTDFTLTISSLQPEDFATYYCQQGYSTPPTFGQGTKVEIK	binds	no binding
MAdCAM antibody Clone ID 26 of Table 6 (scFv) (scFv) scFv: QVQLVQSGAEVKKPGASVKVSCKASGYTLTTWYMYWVRQAPGQGLEWMGWINPNRGATNYAQKFQGRVTMTRDTSTSTVYMELSSLRSEDTAVYYCAKGDLWGAMDVWGQGTTVTVSSGGGGSGGGGSGGGGSGGGGSDIQMTQSPSSLSASVGDRVTITCRASDNIGSWLAWYQQKPGKAPKLLIYAASSLQSGVPSRFSGSGSGTDFTLTISSLQPEDFATYYCQQGYSTPPTFGQGTKVEIK	binds	no binding
MAdCAM antibody Clone ID 11 of Table 6 (scFv) (scFv) scFv: QVQLVQSGAEVKKPGASVKVSCKASGYTFTTYYMHWVRQAPGQGLEWMGGFDPEDGETIYAQKFQGRVTMTRDTSTSTVYMELSSLRSEDTAVYYCARHAVAGAVGAGYYYYGMDVWGQGTMVTVSSGGGGSGGGGSGGGGSGGGGSDIQMTQSPSSLSASVGDRVTITCRASESISNWLAWYQQKPGKAPKLLIYAASTLQSGVPSRFSGSGSGTDFTLTISSLQPEDFATYYCQQSYSVPFTFGPGTKVDIK	binds	no binding
MAdCAM antibody Clone ID 13 of Table 6 (scFv) (scFv) scFv: EVQLLESGGGLVQPGGSLRLSCAASGFTFDDYAMHWVRQAPGKGLEWVSYIDASGTTIYYADSVKGRFTISRDNSKNTLYLQMNSLRAEDTAVYYCAKDQAAAGYWYFDLWGRGTLVTVSSGGGGSGGGGSGGGGSGGGGSDIQMTQSPSSLSASVGDRVTITCQASQDISNYLNWYQQKPGKAPKLLIYKASTLESGVPSRFSGSGSGTDFTLTISSLQPEDFATYYCQQSYSTPITFGQGTRLEIK	binds	no binding
MAdCAM antibody Clone ID 14 of Table 6 (scFv) (scFv) scFv: QVQLVQSGAEVKKPGSSVKVSCKASGYTFTDYHIHWVRQAPGQGLEWMGGIVPRSGSTTYAQKFQGRVTITADESTSTAYMELSSLRSEDTAVYYCAKDESSGWYYFDYWGQGTLVTVSSGGGGSGGGGSGGGGSGGGGSDIVMTQSPLSLPVTPGEPASISCRSSQSLLHSNGYNYLDWYLQKPGQSPQLLIYSAYNRASGVPDRFSGSGSGTDFTLKISRVEAEDVGVYYCMQALQTPLTFGQGTKVEIK	binds	no binding
MAdCAM antibody Clone ID 15 of Table 6 (scFv) (scFv) scFv: QVQLVQSGAEVKKPGSSVKVSCKASGYTFTNYYMHWVRQAPGQGLEWMGGIIPIVDRVKYAQKFQGRVTITADESTSTAYMELSSLRSEDTAVYYCAKGRYTVNYYYGMDVWGQGTTVTVSSGGGGSGGGGSGGGGSGGGGSDIQMTQSPSSLSASVGDRVTITCQANQDISNYLNWYQQKPGKAPKLLIYRASKLEAGVPSRFSGSGSGTDFTLTISSLQPEDFATYYCQQSSEIPYSFGQGTKLEIK	binds	no binding
MAdCAM antibody Clone ID 16 of Table 6 (scFv) (scFv) scFv: EVQLLESGGGLVQPGGSLRLSCAASGFTFEDYAMHWVRQAPGKGLEWVSYLNSDGGSTSYADSVKGRFTISRDNSKNTLYLQMNSLRAEDTAVYYCAKDYCTNGVCAFDYWGQGTLVTVSSGGGGSGGGGSGGGGSGGGGSDIQMTQSPSSLSASVGDRVTITCRASQSISTYLNWYQQKPGKAPKLLIYDASNLETGVPSRFSGSGSGTDFTLTISSLQPEDFATYYCQQSYTIPITFGQGTRLEIK	binds	no binding
MAdCAM antibody Clone ID 17 of Table 6 (scFv) (scFv) scFv: EVQLLESGGGLVQPGGSLRLSCAASGFTFSDSAMHWVRQAPGKGLEWVSAISGSGSTIYYADSVKGRFTISRDNSKNTLYLQMNSLRAEDTAVYYCVSDIAVAGHWYFDLWGRGTLVTVSSGGGGSGGGGSGGGGSGGGGSDIQMTQSPSSLSASVGDRVTITCRASQSISTFLNWYQQKPGKAPKLLIYAASRLEGGVPSRFSGSGSGTDFTLTISSLQPEDFATYYCQQANSFPLTFGPGTKVDIK	binds	no binding
MAdCAM antibody Clone ID 21 of Table 6 (scFv) (scFv) scFv: EVQLLESGGGLVQPGGSLRLSCAASGFTFSNAWMSWVRQAPGKGLEWVSTIVGNGGATYYADSVKGRFTISRDNSKNTLYLQMNSLRAEDTAVYYCARDNPLRWQGMDVWGQGTLVTVSSGGGGSGGGGSGGGGSGGGGSDIQMTQSPSSLSASVGDRVTITCRASQDISNYLNWYQQKPGKAPKLLIYAASSLQSGVPSRFSGSGSGTDFTLTISSLQPEDFATYYCQQSYSIPPTFGPGTKVDIK	binds	no binding
MAdCAM antibody Clone ID 27 of Table 6 (scFv) (scFv) scFv: QVQLVQSGAEVKKPGASVKVSCKASGYTFTGYYIHWVRQAPGQGLEWMGWMNPNSGNTGYAQKFQGRVTMTRDTSTSTVYMELSSLRSEDTAVYYCARDPGFLGYCSGGSCYDGWFDPWGQGTLVTVSSGGGGSGGGGSGGGGSGGGGSDIQMTQSPSSLSASVGDRVTITCRASQSISSYLHWYQQKPGKAPKLLIYAASSLQSGVPSRFSGSGSGTDFTLTISSLQPEDFATYYCQQSYTAPYTFGQGTKLEIK	binds	no binding
MAdCAM antibody Clone ID 28 of Table 6 (scFv) (scFv) scFv: QVQLVQSGAEVKKPGASVKVSCKASGYTFTDYFLHWVRQAPGQGLEWMGWMNPTSGNTGYAQKFQGRVTMTRDTSTSTVYMELSSLRSEDTAVYYCAREGEGSGFDYWGQGTLVTVSSGGGGSGGGGSGGGGSGGGGSDIQMTQSPSSLSASVGDRVTITCRASQGINSWLAWYQQKPGKAPKLLIYDASNLETGVPSRFSGSGSGTDFTLTISSLQPEDFATYYCQQSYSTPLTFGGGTKVEIK	binds	no binding
